Tests used:
[1] = biological target: T1, AMH3647-19 (Dog sequence) (Dog); assay: competition ELISA, AMH-coated plate
T1 peptide: GLLFQPDWDWPP
Experimental: (§1) 1. AMH antigen was diluted with carbonic acid buffer (20 mmol/L CB, pH 9.6) and then coated on a polyvinyl chloride plate. In the pretreatment, the antibody purified by the protein A column and the synthesized short peptides with different human AMH36-47 amino acid mutations (see Table 6 for each synthesized sequence) were subjected to proportion incubation (100 ng/ml antibody: 50 ug/ml truncated antigen) for 30 minutes, that were test samples; the control sample was (100 ng/ml antibody: PBS) and incubated for 30 minutes, and then the test samples after incubation and the control sample were added to AMH antigen plate and incubated for 30 minutes, the plate was washed for 5 times, added with GAM-HRP (1/5000 dilution) and incubated for 30 minutes, the plate was washed for 5 times, and the substrate was added and incubated for 15 minutes. The values under wavelength of 450/620 were read by microplate reader, and the detected OD values were finally calculated and analyzed. The calculation formula was: (control sample OD value−test sample OD value)/control sample OD value, and the criterion for determination was as follows: 90% or more, which represented that there was cross-reaction.

[2] = biological target: T2, AMH3647-22 (Mouse sequence) (Mouse); assay: competition ELISA, AMH-coated plate
T2 peptide: GLIFLEDELWPP
Experimental: as §1

[3] = biological target: T3, AMH3647-23 (Cattle sequence) (Cattle); assay: competition ELISA, AMH-coated plate
T3 peptide: ALIFQQAWDWPL
Experimental: as §1

[4] = biological target: T4, AMH3647-25 (Horse sequence) (Horse); assay: competition ELISA, AMH-coated plate
T4 peptide: GLIFHQDWDWPP
Experimental: as §1

[5] = biological target: T5, AMH truncated antigen 31-44 (human); assay: competition ELISA, antibody preincubated with target, AMH-coated plate
T5 sequence (peptide): AVGTSGLIFREDLD

[6] = biological target: T6, AMH truncated antigen 36-44 (human); assay: as above
T6 sequence (peptide): GLIFREDLD

[7] = biological target: T7, AMH truncated antigen 37-43 (human); assay: as above
T7 sequence (peptide): LIFREDL

[8] = biological target: T8, AMH truncated antigen 39-45 (human); assay: as above
T8 sequence (peptide): FREDLDW

[9] = biological target: T9, AMH truncated antigen 41-50 (human); assay: as above
T9 sequence (peptide): EDLDWPPGSP

[10] = biological target: T10, AMH truncated antigen 41-55 (human); assay: as above
T10 sequence (peptide): EDLDWPPGSPQEPLC

[11] = biological target: T11, AMH truncated antigen 61-75 (human); assay: as above
T11 sequence (peptide): GDSNGSSSPLRVVGA

[12] = biological target: T12, AMH3647-26 (Monkey sequence) (Monkey); assay: as above
T12 sequence (peptide): GLIFREDLGWPP

[13] = biological target: T13, AMH truncated antigen 256-355aa (human); assay: as above
T13 peptide: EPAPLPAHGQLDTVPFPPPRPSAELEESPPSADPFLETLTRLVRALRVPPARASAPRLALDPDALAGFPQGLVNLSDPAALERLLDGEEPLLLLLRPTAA

[14] = biological target: T14, AMH truncated antigen 341-440aa (human); assay: as above
T14 peptide: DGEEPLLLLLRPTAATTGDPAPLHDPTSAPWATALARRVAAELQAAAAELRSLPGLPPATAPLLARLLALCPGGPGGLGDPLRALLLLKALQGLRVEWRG

[15] = biological target: T15, AMH truncated antigen 426-525aa (human); assay: as above
T15 peptide: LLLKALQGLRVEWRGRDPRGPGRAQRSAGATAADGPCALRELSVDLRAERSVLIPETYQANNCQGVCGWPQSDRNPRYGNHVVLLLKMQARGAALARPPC

[16] = biological target: T16, AMH truncated antigen 461-560aa (human); assay: as above
T16 peptide: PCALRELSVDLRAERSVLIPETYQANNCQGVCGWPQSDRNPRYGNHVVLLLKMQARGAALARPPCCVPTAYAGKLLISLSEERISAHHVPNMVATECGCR

[17] = biological target: T17, recombinant human AMH (anti-Mullerian Hormone) (human, UniProt P03971 25-560); assay: as above
T17 construct: range 1-560; also called AMH antigen; AMH (1-560)
T17 sequence (looked up): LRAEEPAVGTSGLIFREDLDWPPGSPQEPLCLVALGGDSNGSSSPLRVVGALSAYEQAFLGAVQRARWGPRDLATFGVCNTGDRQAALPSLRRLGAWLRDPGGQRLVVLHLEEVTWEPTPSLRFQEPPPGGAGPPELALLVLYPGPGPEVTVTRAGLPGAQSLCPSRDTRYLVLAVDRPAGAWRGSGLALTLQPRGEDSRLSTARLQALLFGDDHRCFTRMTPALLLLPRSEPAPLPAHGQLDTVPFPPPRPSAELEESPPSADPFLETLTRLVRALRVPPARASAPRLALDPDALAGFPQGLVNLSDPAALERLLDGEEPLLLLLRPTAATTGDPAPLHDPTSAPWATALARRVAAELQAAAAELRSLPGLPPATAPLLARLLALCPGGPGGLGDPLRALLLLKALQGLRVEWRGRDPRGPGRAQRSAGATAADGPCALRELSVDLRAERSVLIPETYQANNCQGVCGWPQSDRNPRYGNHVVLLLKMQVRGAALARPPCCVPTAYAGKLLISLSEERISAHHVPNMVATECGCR

[18] = biological target: T18, AMH truncated antigen 26-85 aa (human); assay: as above
T18 peptide: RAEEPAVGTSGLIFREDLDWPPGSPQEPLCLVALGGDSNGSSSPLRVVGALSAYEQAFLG

[19] = biological target: T19, AMH truncated antigen 86-185aa (human); assay: as above
T19 peptide: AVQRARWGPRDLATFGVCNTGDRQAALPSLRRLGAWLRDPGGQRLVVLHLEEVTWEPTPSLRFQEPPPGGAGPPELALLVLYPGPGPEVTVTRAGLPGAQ

[20] = biological target: T20, AMH truncated antigen 171-270aa (human); assay: as above
T20 peptide: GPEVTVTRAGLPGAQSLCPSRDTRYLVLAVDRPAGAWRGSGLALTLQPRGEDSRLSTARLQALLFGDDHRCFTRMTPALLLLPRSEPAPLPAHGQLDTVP

binding result [1]: no binding (tested: 50 ug/ml peptide) | binding result [2]: no binding (tested: 50 ug/ml peptide) | binding result [3]: no binding (tested: 50 ug/ml peptide) | binding result [4]: no binding (tested: 50 ug/ml peptide) | percent inhibition [5]: 38% | percent inhibition [6]: 32% | percent inhibition [7]: 57% | percent inhibition [8]: 68% | percent inhibition [9]: 65% | percent inhibition [10]: 68% | percent inhibition [11]: 35% | percent inhibition [12]: 61% | percent inhibition [13]: 1% | percent inhibition [14]: 10% | percent inhibition [15]: 1% | percent inhibition [16]: 6% | percent inhibition [17]: 92% | percent inhibition [18]: 99% | percent inhibition [19]: 2% | percent inhibition [20]: 0%
B1: monoclonal antibody C9F2-2 (antibody, V domains shown)
VH: EVQLVESGGGLVKPGGSLKLSCAASGFAFSTYDMSWVRQTPEKRLEWVAYISPGGGATYYPDTVKGRFTISRDNAKNTLYLQMTSLKSEDTAMYYCAGRRDYYGMDYWGQGTSVTVSS
VL: DVVMTQTPLSLPVSLGDQASISCRSSQSLVHSNGNTYLHWYLQKPGQSPKLLIYKVSNRFSGVPDRFSGSGSGTDFTLKISRVEAEDLGVYFCSQSTHVPWTFGGGTKLEIK
notes: Mouse hybridoma antibody purified from ascites; the tie is indirect; also called hybridoma CCTCC NO: C2018183
